In the Immune Epitope Database (IEDB):

Columns and labels:
[1] = biological target: HLA-B*15:01; assay: IEDB peptide-MHC binding, purified MHC/competitive/radioactivity; filed as Kd, often an IC50 or EC50 that approximates it; ≥ and ≤ were set here for values at or beyond the usual limits of such assays
[2] = biological target: HLA-A*02:01; assay: as above
[3] = biological target: HLA-A*02:17; assay: as above
[4] = biological target: HLA-A*02:03; assay: as above
[5] = biological target: HLA-B*07:02; assay: as above
[6] = biological target: HLA-B*51:01; assay: as above
[7] = biological target: HLA-B*35:01; assay: as above
[8] = biological target: HLA-B*54:01; assay: as above
[9] = biological target: HLA-B*53:01; assay: as above
[10] = biological target: HLA-B*15:01; assay: IEDB peptide-MHC binding, purified MHC/competitive/fluorescence; ≥ and ≤ were set here for values at or beyond the usual limits of such assays
[11] = biological target: HLA-A*02:06; assay: IEDB peptide-MHC binding, purified MHC/competitive/radioactivity; filed as Kd, often an IC50 or EC50 that approximates it; ≥ and ≤ were set here for values at or beyond the usual limits of such assays
[12] = biological target: HLA-A*01:01; assay: IEDB peptide-MHC binding, purified MHC/competitive/fluorescence; filed as Kd, often an IC50 or EC50 that approximates it; ≥ and ≤ were set here for values at or beyond the usual limits of such assays
[13] = biological target: HLA-B*58:01; assay: IEDB peptide-MHC binding, purified MHC/direct/fluorescence; filed as Kd, often an IC50 or EC50 that approximates it; ≥ and ≤ were set here for values at or beyond the usual limits of such assays; settings: source organism: Burkholderia thailandensis
[14] = biological target: HLA-B*57:01; assay: as above; settings: source organism: Burkholderia thailandensis
[15] = source organism: Vaccinia virus Copenhagen
[16] = source organism: Dengue virus 1 Nauru/West Pac/1974
[17] = source organism: Dengue virus 1 Brazil/97-11/1997
[18] = source organism: Vaccinia virus WR
[19] = source organism: Mammarenavirus guanaritoense
[20] = source organism: SARS coronavirus Tor2
[21] = source organism: Dengue virus 2 Jamaica/1409/1983
[22] = source organism: Triticum aestivum
[23] = source organism: Dengue virus 3 Sri Lanka/1266/2000
[24] = source organism: Dengue virus 1 Singapore/S275/1990

Sequence LISIRILYY has a Kd [1, 15] of 144 nM.
In the case of LLFKTSAGV, the Kd [2, 16] is reported as 18.6 nM, the Kd [3, 16] is reported as 126 nM and the Kd [4, 17] is reported as 12 nM.
LPLTSLVITY showed a Kd [5, 18] of 7290 nM, a Kd [6, 18] of 16500 nM and a Kd [7, 18] of 8.35 nM. It also gave a Kd [8, 18] of 2700 nM and a Kd [9, 18] of 12.7 nM.
LPNDRVLDI was tested, and the Kd [5, 19] was 7270 nM, the Kd [6, 19] was 539 nM and the Kd [7, 19] was 2690 nM. For the same sequence, the Kd [8, 19] was 13100 nM and the Kd [9, 19] was 258 nM.
In the case of LPPKSSIDAF, the Kd [5, 20] is reported as 3090 nM, the Kd [6, 20] is reported as 3490 nM and the Kd [7, 20] is reported as 1110 nM. For the same sequence, the Kd [8, 20] was at least 31900 nM and the Kd [9, 20] was 11100 nM.
Sequence LRIQSLMEM has an IC50 ([10]; source organism: Vaccinia virus) of at least 663000 nM.
In the case of LSCSVCNSL, the Kd [1, 18] is reported as 386 nM.
Sequence LVHQVFGTAY has a Kd [1, 17] of 7.15 nM.
Sequence MMATIGIAL has a Kd [2, 21] of 5.19 nM, a Kd [3, 21] of 3430 nM and a Kd [7, 21] of 1110 nM. For the same sequence, the Kd [4, 21] was 5.67 nM.
Work on MSRGYFEHM yielded a Kd [1, 18] of 30.8 nM.
With NIAFLDESF the Kd [1, 18] was 822 nM.
With NPIINTHSF the Kd [5, 18] was 3 nM, the Kd [6, 18] was at least 27100 nM and the Kd [7, 18] was 0.188 nM. It also gave a Kd [8, 18] of 9620 nM and a Kd [9, 18] of 0.178 nM.
In the case of NPSILPSLI, the Kd [5, 18] is reported as 287 nM, the Kd [6, 18] is reported as 304 nM and the Kd [7, 18] is reported as 1120 nM. For the same sequence, the Kd [8, 18] was at least 73400 nM and the Kd [9, 18] was 5.55 nM.
In the case of QPLQQYPL, the Kd [5, 22] is reported as 8450 nM, the Kd [6, 22] is reported as 1450 nM and the Kd [7, 22] is reported as at least 36100 nM. For the same sequence, the Kd [8, 22] was at least 87700 nM and the Kd [9, 22] was at least 22400 nM.
In the case of QSKSSLLHA, the Kd [1, 18] is reported as 405 nM.
For RMNVFNGHL, the Kd [1, 15] was 28 nM.
RPDTRYVLM gave a Kd [5, 20] of 15.4 nM, a Kd [6, 20] of 908 nM and a Kd [7, 20] of 1990 nM. It also gave a Kd [8, 20] of 1580 nM and a Kd [9, 20] of 4850 nM.
For RPKQRRPQGL, the Kd [5, 20] was 308 nM, the Kd [6, 20] was at least 69600 nM and the Kd [7, 20] was at least 69900 nM. The Kd [8, 20] was at least 69900 nM and the Kd [9, 20] was at least 69900 nM.
With RQIQVHAEQ the IC50 ([10]; source organism: Zaire ebolavirus) was 21600 nM.
For SLAAIANQAV, the Kd ([3]; source organism: Dengue virus 3 China/80-2/1980) was 122 nM and the Kd ([4]; source organism: Dengue virus 3 Martinique/1243/1999) was 6.25 nM.
Work on SLCLMMILPA yielded a Kd [11, 23] of 64.9 nM, a Kd [3, 23] of 250 nM and a Kd [4, 23] of 19.7 nM.
Sequence SPLTLLIKTL has a Kd [5, 18] of 1120 nM, a Kd [6, 18] of at least 57300 nM and a Kd [7, 18] of at least 69900 nM. The Kd [8, 18] was at least 69900 nM and the Kd [9, 18] was at least 30000 nM.
STSADQQSLY gave a Kd ([12]; source organism: Influenza A virus (A/Swine/Indiana/9K035/99 (H1N2))) of 18.7 nM.
Work on TLTAALLLLV yielded a Kd [2, 21] of 10.8 nM, a Kd [11, 21] of 77.7 nM and a Kd [3, 21] of 7430 nM. It also gave a Kd [4, 21] of 4.94 nM.
TPIFSDLLKY was tested, and the Kd [5, 18] was 3.46 nM, the Kd [6, 18] was at least 44800 nM and the Kd [7, 18] was 12700 nM. For the same sequence, the Kd [8, 18] was 12800 nM and the Kd [9, 18] was 3610 nM.
Work on VLDDGIYRI yielded a Kd [2, 24] of 5.44 nM and a Kd [3, 24] of 585 nM.
VLLLITHYAI was tested, and the Kd [2, 23] was 4.62 nM and the Kd [3, 23] was 1050 nM.
WADMPLHQW gave a Kd [13] of 9 nM and a Kd [14] of 469 nM.
With WPWYVWLGFI the Kd [5, 20] was at least 51800 nM, the Kd [6, 20] was 11100 nM and the Kd [7, 20] was at least 69900 nM. For the same sequence, the Kd [8, 20] was 15500 nM and the Kd [9, 20] was 4570 nM.
For WVSFNQNLEY, the Kd ([12]; source organism: Influenza A virus (A/goose/Guangdong/1/1996(H5N1))) was 97.7 nM.
YIILFILFF was tested, and the Kd [1, 18] was 5240 nM.
